The chains are these.
B3: SART3 HAT-C with Lα (residues 278–611) (domain or fragment, human, UniProt Q15020 278-611, looked up)
chain: PESVIQNYNKALQQLEKYKPYEEALLQAEAPRLAEYQAYIDFEMKIGDPARIQLIFERALVENCLVPDLWIRYSQYLDRQLKVKDLVLSVHNRAIRNCPWTVALWSRYLLAMERHGVDHQVISVTFEKALNAGFIQATDYVEIWQAYLDYLRRRVDFKQDSSKELEELRAAFTRALEYLKQEVEERFNESGDPSCVIMQNWARIEARLCNNMQKARELWDSIMTRGNAKYANMWLEYYNLERAHGDTQHCRKALHRAVQCTSDYPEHVCEVLLTMERTEGSLEDWDIAVQKTETRLARVNEQRMKAAEKEAALVQQEEEKAEQRKRARAEKKAL

Data set [1] deals with T1, SART3 HAT repeat domain (residues 94–611) (human, UniProt Q15020 94-611).
T1 sequence (looked up): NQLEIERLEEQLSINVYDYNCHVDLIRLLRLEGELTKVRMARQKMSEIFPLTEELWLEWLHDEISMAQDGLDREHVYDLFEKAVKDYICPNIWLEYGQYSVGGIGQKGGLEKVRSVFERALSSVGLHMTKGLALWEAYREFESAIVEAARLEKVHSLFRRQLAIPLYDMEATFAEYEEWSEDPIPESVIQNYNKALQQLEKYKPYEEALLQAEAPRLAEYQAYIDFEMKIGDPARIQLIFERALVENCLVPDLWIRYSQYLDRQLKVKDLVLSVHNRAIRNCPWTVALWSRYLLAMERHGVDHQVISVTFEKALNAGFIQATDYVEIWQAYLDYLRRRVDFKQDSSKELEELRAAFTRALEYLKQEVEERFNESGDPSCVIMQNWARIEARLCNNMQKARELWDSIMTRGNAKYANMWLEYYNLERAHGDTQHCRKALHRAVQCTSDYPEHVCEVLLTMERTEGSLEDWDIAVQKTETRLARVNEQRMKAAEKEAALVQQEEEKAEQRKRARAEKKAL
The data set can be described thus: ITC. On the technique in general: ITC needs no label: the signal is the heat of the interaction.

Data set [2] concerns the molecule itself. The data set can be described thus: crystal structure.
Data set [3] addresses B3. The data set can be described thus: ITC.
The target of data set [4] is T1, SART3 HAT repeat domain (residues …). The experiment in a line: ITC. This is another data set of the same source.
Data set [5] has as its target mouse importin-α2 (residues 70–498) (mouse, UniProt P52293 70-498). The experiment in a line: ITC.

Like-named read-outs stand apart in the source and are kept apart here.

Data on six molecules can be found in article PMC4914101 (Nucleic Acids Research, 2016).

B1: USP11^L4 (USP11 DUSP-UBL with the linker replaced by the USP4 linker) (domain or fragment, human, UniProt P51784 73-288, looked up)
chain: EELPGLDSQWRQIENGESGRERPLRAGESWFLVEKHWYKQWEAYVQGGDQDSSTFPGCINNATLFQDEINWRLKEGLVEGEDYVLLPAAAWHYLVSWYGLEHGQPPIERKVIEHGLFVKHCKVEVYPVELLLVRHNDLGKSHTVQFSHTDSIGLVLRTARERFLVEPQEDTRLWAKNSEGSLDRLYDTHITVLDAALETGQLIIMETRKKDGTWPSAQL
Regarding B1, in data set [1], the equilibrium dissociation constant (Kd) – broadly, the free concentration of one partner at which half of the binding sites on the other are occupied at equilibrium, for simple one-to-one binding – is 20100 ± 4360 nM; the dH is -9.1 ± 0.4 kcal/mol; the stoichiometry N (commonly a count of units in the complex or per binding partner) came out at 0.89 ± 0.15.

B2: USP11^L15 (USP11 DUSP-UBL with the linker replaced by the USP15 linker) (domain or fragment, human, UniProt P51784 73-288, looked up)
chain: EELPGLDSQWRQIENGESGRERPLRAGESWFLVEKHWYKQWEAYVQGGDQDSSTFPGCINNATLFQDEINWRLKEGLVEGEDYVLLPAAAWHYLVSWYGLEHGQPPIERKVIEQGMFVKHCKVEVYPVELLLVRHNDLGKSHTVQFSHTDSIGLVLRTARERFLVEPQEDTRLWAKNSEGSLDRLYDTHITVLDAALETGQLIIMETRKKDGTWPSAQL
B2: in data set [1], binding was put at a Kd of 18700 ± 2250 nM, the dH is -5.7 ± 0.7 kcal/mol and the “stoichiometry N” value turned out to be 1.06 ± 0.09.

As to B3, in data set [2], the binding result is “binds”.

B4: DUSP-UBL domains of human USP4 (residues 1–230) (domain or fragment, UniProt Q13107 1-230, looked up)
chain: MAEGGGCRERPDAETQKSELGPLMRTTLQRGAQWYLIDSRWFKQWKKYVGFDSWDMYNVGEHNLFPGPIDNSGLFSDPESQTLKEHLIDELDYVLVPTEAWNKLLNWYGCVEGQQPIVRKVVEHGLFVKHCKVEVYLLELKLCENSDPTNVLSCHFSKADTIATIEKEMRKLFNIPAERETRLWNKYMSNTYEQLSKLDNTVQDAGLYQGQVLVIEPQNEDGTWPRQTLQ
Consider B4, for which, in data set [3], the Kd stood at 580 ± 30 nM, the dH is -21.1 ± 0.4 kcal/mol and the “stoichiometry N” value came out at 1.05 ± 0.01. Besides, in data set [4], the dissociation constant Kd turned out to be 880 ± 130 nM, the dH was -21.6 ± 0.6 kcal/mol and the “stoichiometry N” value was 1.07 ± 0.02.

Regarding RKRARAEKKALKKKKKIRGPEKRGADEDDEKEWGDDEEEQPSKRRRVEN (domain or fragment) [SART3 NLS (residues 601–649)], in data set [5], the affinity, expressed as Kd, was 210 ± 10 nM; the dH is -8.6 ± 0.2 kcal/mol; the “stoichiometry N” value stood at 1.01 ± 0.01.

B5: DUSP-UBL domains of human USP15 (residues 1–226) (domain or fragment, UniProt Q9Y4E8 1-226, looked up)
chain: MAEGGAADLDTQRSDIATLLKTSLRKGDTWYLVDSRWFKQWKKYVGFDSWDKYQMGDQNVYPGPIDNSGLLKDGDAQSLKEHLIDELDYILLPTEGWNKLVSWYTLMEGQEPIARKVVEQGMFVKHCKVEVYLTELKLCENGNMNNVVTRRFSKADTIDTIEKEIRKIFSIPDEKETRLWNKYMSNTFEPLNKPDSTIQDAGLYQGQVLVIEQKNEDGTWPRGPST
Turning to B5, in data set [3], the Kd was determined as 140 ± 60 nM, the dH was -17.7 ± 0.5 kcal/mol and the “stoichiometry N” value was determined as 1.09 ± 0.01. Moreover, in data set [4], the Kd was found to be 190 ± 40 nM, the dH was -16.1 ± 0.1 kcal/mol and the “stoichiometry N” value amounted to 0.99 ± 0.01.
